{
  "source": "paper PMC5862942",
  "about": "“JMJD5 is a human arginyl C-3 hydroxylase” (Nature Communications, 2018)",
  "target": "N-terminally truncated JMJD5 (Jumonji-C domain-containing protein 5), wild type (human, UniProt Q8N371 183-416)",
  "sequence (Q8N371 other isoform, or with tags, fused parts or gaps)": "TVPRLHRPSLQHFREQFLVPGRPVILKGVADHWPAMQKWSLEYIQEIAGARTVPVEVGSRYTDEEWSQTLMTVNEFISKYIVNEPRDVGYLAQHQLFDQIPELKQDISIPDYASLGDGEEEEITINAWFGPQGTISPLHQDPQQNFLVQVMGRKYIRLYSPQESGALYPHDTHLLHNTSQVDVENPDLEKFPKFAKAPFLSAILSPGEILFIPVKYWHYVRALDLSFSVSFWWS",
  "assay": "cell-based or functional assay",
  "note": "Where no end group is shown, it is not given here.",
  "data": [
    {"binder": "VPRRLGPKRASRIRKL-NH2", "note": "[40S ribosomal protein S6 (RPS6) peptide, residues 129-144]", "values": [
      {"measurement": "apparent Km of the RPS6 129-144 peptide in JMJD5-catalysed Arg137 hydroxylation (MALDI-MS-based assay, 37 °C)", "result": 60.4, "unit": "µM"}
    ]}
  ]
}
